Key:
human NTB-A [1] = target: T1, human NTB-A (human, UniProt Q96DU3 22-332); assay: cell-based or functional assay
T1 sequence: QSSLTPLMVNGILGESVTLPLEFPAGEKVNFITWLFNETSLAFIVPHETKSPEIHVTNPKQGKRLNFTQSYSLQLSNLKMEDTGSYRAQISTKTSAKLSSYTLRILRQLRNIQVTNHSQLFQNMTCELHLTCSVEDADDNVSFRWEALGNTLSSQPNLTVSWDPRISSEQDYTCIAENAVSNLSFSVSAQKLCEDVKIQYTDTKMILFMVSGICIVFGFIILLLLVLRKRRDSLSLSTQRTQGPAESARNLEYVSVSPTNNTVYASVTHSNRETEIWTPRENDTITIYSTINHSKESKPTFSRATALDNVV

human NTB-A [2] = target: T1, human NTB-A; assay: saturation binding of Alexa Fluor 647-labeled antibody on Ramos cells, flow cytometry
Experimental: (§1) Antigen positive Ramos cells were plated at 1×10⁵ cells per well in a 96 well V-bottom plate (Thermo Scientific, Rochester, N.Y.). Three-fold serial dilutions of 2× concentrated antibodies were prepared in FACs buffer (PBS+2% fetal bovine serum) and were added to the cells in duplicate. The antibody solutions were incubated with cells for 1 hour on ice, protected from light. The cells were washed twice with FACs buffer and analyzed on the LSRII flow cytometer (BD BioSciences, San Jose, Calif.). KD values were determined with GraphPad Prism software (La Jolla, Calif.). Anti-human NTB-A antibodies h20F3_HDLD and chimeric 20F3 were tested for binding to 293-F17 cells overexpressing cynomolgus-NTB-A. 293-F17/cynomolgus-NTB-A cells were plated at 5×10⁵ cells/well in FACS buffer (PBS+2% fetal bovine serum+0.02% azide) and incubated with 20 μg/mL antibody for 30 minutes on ice. The cells were washed twice and stained with 30 μg/mL goat anti-human IgG-PE (Jackson ImmunoResearch, West Grove, Pa.) for 30 minutes, on ice and protected from light. Cells were again washed twice with FACs buffer. Stained cells were analyzed on the FACs Calibur flow cytometer (BD BioSciences, San Jose, Calif.).

human NTB-A [3] = target: T1, human NTB-A; assay: cell-based or functional assay; remark: listed apart in the source
human NTB-A [4] = target: T1, human NTB-A; assay: antigen binding competition assay on Ramos cells
Experimental: (§2) Antigen positive Ramos cells were plated at 1×10⁵ cells per well in a 96 well V-bottom plate (Thermo Scientific, Rochester, N.Y.). Fifty-fold serial dilutions of antibodies were prepared in FACs buffer (PBS+2% fetal bovine serum) and were added to the cells in duplicate. The antibody solutions were incubated with cells for 1 hour on ice, protected from light. The cells were washed twice with FACs buffer and analyzed on the LSRII flow cytometer (BD BioSciences, San Jose, Calif.). EC50 values were determined with GraphPad Prism software (La Jolla, Calif.).

human NTB-A [5] = target: T1, human NTB-A; assay: competition flow cytometry on Ramos cells; competitor 5 nM mouse 20F3-Alexa Fluor 647
Experimental: as §2

human NTB-A [6] = target: T1, human NTB-A; assay: saturation binding of Alexa Fluor 647-labeled antibody (h20F3_HDLD-AF647) on Ramos cells, flow cytometry
Experimental: as §1

Row | Maximum % Phagocytosis (ADCP), Raji cell line (human NTB-A [3]) | Maximum % Phagocytosis (ADCP), WIL2-S cell line (human NTB-A [3]) | Maximum % Phagocytosis (ADCP), normal human T cells (human NTB-A [3]) | Binder | IC50, 96 hour cytotoxicity (Cell-Titer Glo), resting human B cells, donor 1 (human NTB-A [1]) | IC50, 96 hour cytotoxicity (Cell-Titer Glo), resting human B cells, donor 2 (human NTB-A [1]) | IC50, 96 hour cytotoxicity (Cell-Titer Glo), resting human B cells, donor 3 (human NTB-A [1]) | other results
1 | 48% | 45% | 42% | humanized 20F3 HDLD antibody (antibody, V domains shown, also called h20F3_HDLD; h20F3_HDLD-AF647) VH: QIQLVQSGSELKKPGASVKVSCKASGYTFTNYGMNWVRQAPGQDLKWMGWINTYSGEPRYADDFKGRFVFSLDKSVNTAYLQISSLKAEDTAVYYCARDYGRWYFDVWGQGTTVTVSS VL: QIVLSQSPATLSLSPGERATMSCRASSSVSHMHWYQQKPGQAPRPWIYATSNLASGVPARFSGSGSGTDYTLTISSLEPEDFAVYYCQQWSSTPRTFGGGTKVEIKR | – | – | – | EC50 (human NTB-A [4]): ~12 nM; EC50 (human NTB-A [5]): 3 nM; Kd (human NTB-A [6]): 2.2 nM
2 | 44% | 45% | 33% | h20F3ec (antibody, human IgG1, kappa, V domains shown) VH: QIQLVQSGSELKKPGASVKVSCKASGYTFTNYGMNWVRQAPGQDLKWMGWINTYSGEPRYADDFKGRFVFSLDKSVNTAYLQISSLKAEDTAVYYCARDYGRWYFDVWGQGTTVTVSS VL: QIVLSQSPATLSLSPGERATMSCRASSSVSHMHWYQQKPGQAPRPWIYATSNLASGVPARFSGSGSGTDYTLTISSLEPEDFAVYYCQQWSSTPRTFGGGTKVEIKR | – | – | – | –

Continued, binder first:

Row | Binder | Maximum % Phagocytosis (ADCP), Raji cell line (human NTB-A [3]) | Maximum % Phagocytosis (ADCP), WIL2-S cell line (human NTB-A [3]) | Maximum % Phagocytosis (ADCP), normal human T cells (human NTB-A [3]) | IC50, 96 hour cytotoxicity (Cell-Titer Glo), resting human B cells, donor 1 (human NTB-A [1]) | IC50, 96 hour cytotoxicity (Cell-Titer Glo), resting human B cells, donor 2 (human NTB-A [1]) | IC50, 96 hour cytotoxicity (Cell-Titer Glo), resting human B cells, donor 3 (human NTB-A [1]) | other results
3 | c20F3-1910(2) ADC (other, PBD dimer drug-linker 1910, load 2 by its name; attachment site not stated for the chimeric antibody) VH: QIQLVQSGPELKKPGETVKISCKASGYTFTNYGMNWVKQAPGKDLKWMGWINTYSGEPRYADDFKGRFAFSLEKSANTAYLQINNLKNEDMATYFCARDYGRWYFDVWGTGTTVTVSS VL: QIVLSQSPAILSASPGEKVTMTCRASSSVSHMHWYQQKPGSSPKPWIYATSNLASGVPARFSGSGSGTSYSLTISRVEAEDAATYYCQQWSSTPRTFGGGTKLEIKR | – | – | – | 1.47 µg/mL | 1.27 µg/mL | 3.42 µg/mL | IC50, 96 hour cytotoxicity (Cell-Titer Glo), resting human T cells, donor 4 (human NTB-A [1]): > 10 µg/mL; IC50, 96 hour cytotoxicity (Cell-Titer Glo), resting human T cells, donor 5 (human NTB-A [1]): > 10 µg/mL; IC50, 96 hour cytotoxicity (Cell-Titer Glo), resting human T cells, donor 6 (human NTB-A [1]): > 10 µg/mL
4 | c20F3-vcMMAE(4) ADC (other, MMAE via a cathepsin-cleavable valine-citrulline linker, load 4 by its name; attachment sites not stated) VH: QIQLVQSGPELKKPGETVKISCKASGYTFTNYGMNWVKQAPGKDLKWMGWINTYSGEPRYADDFKGRFAFSLEKSANTAYLQINNLKNEDMATYFCARDYGRWYFDVWGTGTTVTVSS VL: QIVLSQSPAILSASPGEKVTMTCRASSSVSHMHWYQQKPGSSPKPWIYATSNLASGVPARFSGSGSGTSYSLTISRVEAEDAATYYCQQWSSTPRTFGGGTKLEIKR | – | – | – | > 10 µg/mL | > 10 µg/mL | > 10 µg/mL | –
5 | chimeric 20F3 (antibody, V domains shown, It was detected with goat anti-human IgG, so the constant regions are human, but they are not specified) VH: QIQLVQSGPELKKPGETVKISCKASGYTFTNYGMNWVKQAPGKDLKWMGWINTYSGEPRYADDFKGRFAFSLEKSANTAYLQINNLKNEDMATYFCARDYGRWYFDVWGTGTTVTVSS VL: QIVLSQSPAILSASPGEKVTMTCRASSSVSHMHWYQQKPGSSPKPWIYATSNLASGVPARFSGSGSGTSYSLTISRVEAEDAATYYCQQWSSTPRTFGGGTKLEIKR | – | – | – | – | – | – | Kd (human NTB-A [2]): 1.68 nM

Reference: patent US20180169257A1 (Seagen, published 2018)
